Measured values taken from patent US20200096514.

T1: LAS-Q (not fully specified)
T1 chain: GLGGGAGK

T2: ELA-Q (not fully specified)
T2 chain: GAAFAGK


How the values were obtained:
LAS-Q = biological target: T1, LAS-Q
ELA-Q = biological target: T2, ELA-Q

Protein | cleavage of LAS-Q by P. aeruginosa culture supernatants (fluorescence) set against LasA content by Western blot (LAS-Q) | reversal of FRET-quenched fluorescent signal (cleavage) (LAS-Q) | reversal of FRET-quenched fluorescent signal (cleavage) (ELA-Q)
LasA protease of Pseudomonas aeruginosa (secreted, in culture supernatants) (protein) APPSNLMQLPWRQGYSWQPNGAHSNTGSGYPYSSFDASYDWPRWGSATYSVVAAHAGTVRVLSRCQVRVTHPSGWATNYYHMDQIQVSNGQQVSADTKLGVYASNINTALCEGGSSTGPHLHFSLLYNGAFVSLQGASFGPYRINVGTSNYDNDCRRYYFYNQSAGTTHCAFRPLYNPGLAL | the non-cleaving strains lacked LasA in their supernatant, whereas supernatant from the substrate-cleaving strains contained substantial levels of LasA protein |  | 
recombinant mouse neutrophil elastase (protein) SEIVGGRPARPHAWPFMASLQRRGGHFCGATLIARNFVMSAAHCVNGLNFRSVQVVLGAHDLRRQERTRQTFSVQRIFENGFDPSQLLNDIVIIQLNGSATINANVQVAQLPAQGQGVGDRTPCLAMGWGRLGTNRPSPSVLQELNVTVVTNMCRRRVNVCTLVPRRQAGICFGDSGGPLVCNNLVQGIDSFIRGGCGSGLYPDAFAPVAEFADWINSIIRSHNDHLLTHPKDREGRTN |  | ELA-Q and-to a lesser extent, LAS-Q-are each cleaved by neutrophil elastase | ELA-Q and-to a lesser extent, LAS-Q-are each cleaved by neutrophil elastase
